Experimental findings from article PMC8000976 are described below.

The target of the assay is full-length dengue virus serotype 1 (DENV1) NS1 (dengue virus serotype 1 (DENV1)). Put plainly: crystal structure.

Usually stoichiometry N stands for the number of molecules, sites or subunits per partner or assembly. Turning to “full-length dengue virus serotype 1 (DENV1) NS1 (natural protein)”, the stoichiometry N amounted to 2.
